Laboratory results taken from publication doi:10.1101/2020.12.08.415398 (bioRxiv, 2020).
Where two headings read alike, the source gives them in different places.

What was measured:
[1] = target: T1, GPR133 (ADGRD1) C-terminal fragment (CTF) with C-terminal TwinStrep tag, from C-terminally tagged wild-type … (human); experiment: pull-down
T1 chain: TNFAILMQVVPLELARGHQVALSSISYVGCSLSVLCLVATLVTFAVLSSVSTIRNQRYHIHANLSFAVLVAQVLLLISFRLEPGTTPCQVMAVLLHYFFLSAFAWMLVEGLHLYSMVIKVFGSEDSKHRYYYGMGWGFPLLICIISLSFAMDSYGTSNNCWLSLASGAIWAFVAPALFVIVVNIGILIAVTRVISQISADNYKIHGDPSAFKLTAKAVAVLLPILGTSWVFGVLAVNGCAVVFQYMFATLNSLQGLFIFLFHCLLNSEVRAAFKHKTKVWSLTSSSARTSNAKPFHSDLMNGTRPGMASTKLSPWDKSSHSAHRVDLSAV

[2] = target: T1, GPR133 (ADGRD1) C-terminal fragment …; experiment: pull-down

B1: GPR133 (ADGRD1) N-terminal fragment (NTF), from C-terminally TwinStrep-tagged wild-type GPR133 (domain or fragment, human)
chain: VYSRSQDHPGFQVLASASHYWPLENVDGIHELQDTTGDIVEGKVNKGIYLKEEKGVTLLYYGRYNSSCISKPEQCGPEGVTFSFFWKTQGEQSRPIPSAYGGQVISNGFKVCSSGGRGSVELYTRDNSMTWEASFSPPGPYWTHVLFTWKSKEGLKVYVNGTLSTSDPSGKVSRDYGESNVNLVIGSEQDQAKCYENGAFDEFIIWERALTPDEIAMYFTAAIGKHALLSSTLPSLFMTSTASPVMPTDAYHPIITNLTEERKTFQSPGVILSYLQNVSLSLPSKSLSEQTALNLTKTFLKAVGEILLLPGWIALSEDSAVVLSLIDTIDTVMGHVSSNLHGSTPQVTVEGSSAMAEFSVAKILPKTVNSSHYRFPAHGQSFIQIPHEAFHRHAWSTVVGLLYHSMHYYLNNIWPAHTKIAEAMHHQDCLLFATSHLISLEVSPPPTLSQNLSGSPLITVHLKHRLTRKQHSEATNSSNRVFVYCAFLDFSSGEGVWSNHGCALTRGNLTYSVCRCTHL
modifications: glycosylated (nine N-linked glycosylation sites predicted within the NTF; positions not given)
[1]
  NTF/CTF ratio in the elution (densitometry): 1
[2]
  NTF/CTF ratio in the elution (densitometry): 0.17
